Test results from paper doi:10.1101/2020.01.18.911131.

Target: taxol-stabilized microtubules (porcine brain tubulin) (porcine) (UniProt P02550)
Assay: co-sedimentation

Kd	Substance
1.6 µM	chick Fmn2 FH2FSI (1148th-1587th aa) (from UniProt A0A1B2VWD2 1148-1587) (domain or fragment)
18.6 µM	chick Fmn2 FH2_ΔFSI (1148th-1563rd aa) (from UniProt A0A1B2VWD2 1148-1563) (domain or fragment)
